Where a chain is given by its changes, count along the chain named. Where two headings read alike, the source gives them in different places.
T1: COP1^349–675,Lys422Ala WD40 domain (Arabidopsis, UniProt P43254 349-675, Lys422Ala)
T1 sequence: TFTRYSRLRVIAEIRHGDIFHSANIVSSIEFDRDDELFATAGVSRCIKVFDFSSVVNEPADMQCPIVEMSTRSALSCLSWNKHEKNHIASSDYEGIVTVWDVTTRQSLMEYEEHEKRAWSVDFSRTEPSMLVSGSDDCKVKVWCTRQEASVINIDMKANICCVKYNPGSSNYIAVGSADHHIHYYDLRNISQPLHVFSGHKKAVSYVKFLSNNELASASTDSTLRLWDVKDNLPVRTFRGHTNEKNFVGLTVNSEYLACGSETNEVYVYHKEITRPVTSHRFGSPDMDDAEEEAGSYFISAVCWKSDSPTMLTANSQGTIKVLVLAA

T2: UVR8^ValPro/AlaAla (recombinant) (Arabidopsis, UniProt Q9FN03 1-440, ValPro/AlaAla)
T2 sequence: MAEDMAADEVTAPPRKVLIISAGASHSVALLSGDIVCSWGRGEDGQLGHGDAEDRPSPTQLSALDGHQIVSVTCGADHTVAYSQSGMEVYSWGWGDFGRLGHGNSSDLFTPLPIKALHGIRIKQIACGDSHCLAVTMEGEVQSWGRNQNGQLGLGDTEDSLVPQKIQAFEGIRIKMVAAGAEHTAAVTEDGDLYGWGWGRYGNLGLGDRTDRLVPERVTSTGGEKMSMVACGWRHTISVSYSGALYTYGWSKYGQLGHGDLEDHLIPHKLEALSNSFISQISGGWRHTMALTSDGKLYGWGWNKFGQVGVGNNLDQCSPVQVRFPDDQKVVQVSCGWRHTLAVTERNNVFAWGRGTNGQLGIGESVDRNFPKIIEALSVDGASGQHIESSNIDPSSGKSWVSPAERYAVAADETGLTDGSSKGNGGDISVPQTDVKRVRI

T3: COP1^Tyr441Ala WD40 domain (Arabidopsis, UniProt P43254 349-675, Tyr441Ala)
T3 sequence: T1 sequence with A74K, Y93A

B1: full‐length HY5 protein (recombinant) (natural protein)
chain: MQEQATSSLAASSLPSSSERSSSSAPHLEIKEGIESDEEIRRVPEFGGEAVGKETSGRESGSATGQERTQATVGESQRKRGRTPAEKENKRLKRLLRNRVSAQQARERKKAYLSELENRVKDLENKNSELEERLSTLQNENQMLRHILKNTTGNKRGGGGGSNADASL
B2: UVR8^TRIB1VP chimera (recombinant) (other)
chain: MAEDMAADEVTAPPRKVLIISAGASHSVALLSGDIVCSWGRGEDGQLGHGDAEDRPSPTQLSALDGHQIVSVTCGADHTVAYSQSGMEVYSWGWGDFGRLGHGNSSDLFTPLPIKALHGIRIKQIACGDSHCLAVTMEGEVQSWGRNQNGQLGLGDTEDSLVPQKIQAFEGIRIKMVAAGAEHTAAVTEDGDLYGWGWGRYGNLGLGDRTDRLVPERVTSTGGEKMSMVACGWRHTISVSYSGALYTYGWSKYGQLGHGDLEDHLIPHKLEALSNSFISQISGGWRHTMALTSDGKLYGWGWNKFGQVGVGNNLDQCSPVQVRFPDDQKVVQVSCGWRHTLAVTERNNVFAWGRGTNGQLGIGESVDRNFPKIIEALSVDGASGQHIESSNIDPSSGKSWVSPAESDQIVPEY
B3: Arabidopsis COP1^349–675 WD40 domain (domain or fragment)
chain: T1 sequence with A74K
B4: UVR8^HY5VP chimera (recombinant) (other)
chain: T2 sequence with R406E, Y407I, A408R, V409R, A410V, A411P, D412E, E413F

Experiments:
[1] = target: B3; experiment: ITC
[2] = target: T1, COP1^349–675,Lys422Ala WD40 domain; experiment: ITC
[3] = target: B3
[4] = target: B3
[5] = target: B3; experiment: ITC
[6] = target: T1, COP1^349–675,Lys422Ala WD40 domain; experiment: ITC; remark: listed apart in the source
[7] = target: B3
[8] = target: B3
[9] = target: T2, UVR8^ValPro/AlaAla (recombinant)
[10] = target: UVR8^HY5C44 chimera (recombinant) (Arabidopsis, UniProt Q9FN03); experiment: UV-B-activated chimera
[11] = target: T3, COP1^Tyr441Ala WD40 domain; experiment: ITC
[12] = target: B3; experiment: ITC

For RYAVVPDE [UVR8^406–413 VP peptide], the Kd [1] was 190 µM and the Kd [2] was 16 µM.

With B1 the koff [3] was 0.0832 s⁻¹ and the Kd [4] was 1.2 µM.

Binder NDQQVPSAV [CRY2^527–535 VP peptide] has a Kd [5] of 21 µM and a Kd [6] of 560 µM.

For B2, the Kd [7] was 0.093 µM and the koff [8] was 0.0319 s⁻¹.

Work on EDQMVPSIT [CRY1^544–552 VP peptide] yielded a Kd [5] of 3 µM and a Kd [6] of 76 µM.

With GFGVVPSF [COL3^287–294 VP peptide] the Kd [5] was 39 µM and the Kd [6] was 7.8 µM.

B3 was tested, and the Kd [9] was 2.2 µM and the Kd [10] was 0.269 µM.

With GYGIVPSF [CO^366–373 VP peptide] the Kd [5] was 74 µM and the Kd [6] was 21 µM.

Work on EIRRVPEFGG [HY5^39–48 VP peptide] yielded a Kd [1] of 23 µM, a Kd [2] of 23 µM and a Kd [11] of 230 µM.

SDQIVPEY [TRIB1 VP peptide] showed a Kd [12] of 1.6 µM.

For B4, the Kd [7] was 0.069 µM and the koff [8] was 0.0532 s⁻¹.

From publication PMC6745501 (2019)
